Test results: the supplement of paper PMC10598134
± gives the standard deviation.

Experiment: collision cross section of modified peptide (TIMS, N2, iRT-aligned); higher = larger / more extended gas-phase ion
Summary of the method: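 Collision cross section values rest on the Mason-Schamp equation applied to calibrated, run-aligned mobility data from synthetic peptides. Mobility (1/K0) was calibrated with three reference ions and aligned per run to the median iRT peptide deviation, and 1–3 technical replicates of the most abundant feature per charge state were averaged. Data came from a timsTOF Pro/HT in dda-PASEF mode (nitrogen, ~2.4 mbar) after a 120-min nanoflow C18 gradient at 60 °C.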

[1] = charge state: 2, modification: Methyl (K)
[2] = charge state: 3, modification: Methyl (K)
[3] = charge state: 2, modification: Methyl (R)
[4] = charge state: 3, modification: Methyl (R)
[5] = charge state: 2, modification: GlyGly (K)
[6] = charge state: 3, modification: GlyGly (K)
[7] = charge state: 2, modification: Butyryl
[8] = charge state: 2, modification: Succinyl
[9] = charge state: 2, modification: Trimethyl (K)
[10] = charge state: 3, modification: Trimethyl (K)
[11] = charge state: 2, modification: Acetyl (K)
[12] = charge state: 2, modification: Glutarylation
[13] = charge state: 2, modification: Dimethyl (K)
[14] = charge state: 3, modification: Dimethyl (K)
[15] = charge state: 3, modification: Succinyl

## ALASIDSKLNQAK [_ALASIDSK(Methyl (K))LNQAK_]
[1]
  collision cross section: 411.6 ± 0.9 Å²
[2]
  collision cross section: 462.35 ± 4.6 Å²

## VRLQTTLR [_VR(Methyl (R))LQTTLR_]
[3]
  collision cross section: 349.69 ± 0.95 Å²
[4]
  collision cross section: 439.94 ± 4.3 Å²

## LRQQLQAK [_LR(Citrullination (R))QQLQAK_]
Charge state: 2, modification: Citrullination (R)
  collision cross section: 337.45 ± 0.28 Å²

## AGQKLIDVNHYAK [_AGQK(GlyGly (K))LIDVNHYAK_]
[5]
  collision cross section: 433.04 ± 1.4 Å²
[6]
  collision cross section: 485.98 ± 1.6 Å²

## IHVQSSSDSSDEPAEKR [_IHVQSSSDSSDEPAEK(Methyl (K))R_]
[1]
  collision cross section: 448.84 Å²
[2]
  collision cross section: 522.27 ± 1 Å²

## VILENIASHEPR [_VILENIAS(HexNAc (ST))HEPR_]
Charge state: 2, modification: HexNAc (ST)
  collision cross section: 443 ± 0.62 Å²
Charge state: 3, modification: HexNAc (ST)
  collision cross section: 492.7 ± 0.18 Å²

## IGNSYFKEEK [_IGNSYFK(Butyryl)EEK_]
[7]
  collision cross section: 377.97 ± 0.72 Å²

## DLSTVEALQNLKNLK [_DLSTVEALQNLK(Butyryl)NLK_]
[7]
  collision cross section: 484.29 ± 0.35 Å²
Charge state: 3, modification: Butyryl
  collision cross section: 550.2 Å²

## LGSPSGKTGTCR [_LGSPSGK(Butyryl)TGTCR_]
[7]
  collision cross section: 373.24 ± 0.22 Å²

## ASEALLKQLK [_ASEALLK(Succinyl)QLK_]
[8]
  collision cross section: 374.59 ± 0.24 Å²

## LQAAYAGDKADDIQK [_LQAAYAGDK(Biotin)ADDIQK_]
Charge state: 2, modification: Biotin
  collision cross section: 449.09 ± 0.62 Å²
Charge state: 3, modification: Biotin
  collision cross section: 511.95 ± 0.34 Å²

## LGNDFHTNKR [_LGNDFHTNK(Formyl)R_]
Charge state: 2, modification: Formyl
  collision cross section: 366.48 ± 1.5 Å²
Charge state: 3, modification: Formyl
  collision cross section: 438.07 ± 2.4 Å²

## IQTKAGEATVK [_IQTK(Trimethyl (K))AGEATVK_]
[9]
  collision cross section: 376.56 ± 1.1 Å²
[10]
  collision cross section: 436.23 Å²

## TTEETSKPK [_TTEETSK(Acetyl (K))PK_]
[11]
  collision cross section: 334.91 ± 0.21 Å²

## LLIVSTTPYSEKDTK [_LLIVSTTPYSEK(Methyl (K))DTK_]
[1]
  collision cross section: 465.27 ± 2.3 Å²
[2]
  collision cross section: 508.6 ± 2 Å²

## VGEFSGANKEK [_VGEFSGANK(Malonyl)EK_]
Charge state: 2, modification: Malonyl
  collision cross section: 354.12 ± 1.7 Å²

## KYEEIDNAPEER [_K(Gluratylation)YEEIDNAPEER_]
[12]
  collision cross section: 417.33 ± 0.59 Å²
Charge state: 3, modification: Glutarylation
  collision cross section: 495.54 ± 1 Å²

## IINEPTAAAIAYGLDKK [_IINEPTAAAIAYGLDK(Dimethyl (K))K_]
[13]
  collision cross section: 490.46 ± 1.8 Å²
[14]
  collision cross section: 554.13 ± 0.54 Å²

## YIEIYVQKVNPSR [_YIEIYVQK(Dimethyl (K))VNPSR_]
[13]
  collision cross section: 441.4 ± 1.2 Å²
[14]
  collision cross section: 503.81 ± 1.6 Å²

## FDDTNPEKEEAK [_FDDTNPEK(Succinyl)EEAK_]
[8]
  collision cross section: 397.2 ± 0.56 Å²
[15]
  collision cross section: 438.25 ± 3.4 Å²

## IVEKYGYTHLSAGELLR [_IVEK(Methyl (K))YGYTHLSAGELLR_]
[2]
  collision cross section: 548.39 ± 0.79 Å²

## DKALPLEAEVAPVK [_DK(Crotonyl)ALPLEAEVAPVK_]
Charge state: 2, modification: Crotonyl
  collision cross section: 411.34 ± 0.34 Å²

## VGIDTPDIDIHGPEGKLK [_VGIDTPDIDIHGPEGK(Acetyl (K))LK_]
[11]
  collision cross section: 490.05 Å²
Charge state: 3, modification: Acetyl (K)
  collision cross section: 536.56 ± 1.2 Å²

## LLIVSTTPYSEKDTK [_LLIVSTTPYSEK(Trimethyl (K))DTK_]
[9]
  collision cross section: 468.15 ± 1.2 Å²
[10]
  collision cross section: 501.69 ± 1.8 Å²

## GTGRGGGGGGGGGAPR [_GTGR(Methyl (R))GGGGGGGGGAPR_]
[4]
  collision cross section: 445.93 ± 3.2 Å²

## GGGYGGDRGGYGGDR [_GGGYGGDR(Methyl (R))GGYGGDR_]
[4]
  collision cross section: 455.76 ± 1.3 Å²

## RGVGAGAIAK [_R(Methyl (R))GVGAGAIAK_]
[3]
  collision cross section: 328.76 ± 0.75 Å²

## PSVGSQSNQAGQGKR [_PSVGSQSNQAGQGK(Succinyl)R_]
[8]
  collision cross section: 415.39 ± 2 Å²
[15]
  collision cross section: 455.72 ± 2.4 Å²

## PANEKATDDYHYEK [_PANEK(GlyGly (K))ATDDYHYEK_]
[5]
  collision cross section: 439.63 ± 1.2 Å²
[6]
  collision cross section: 506.82 ± 0.35 Å²

## IPQEKCILQTDVK [_IPQEK(Gluratylation)CILQTDVK_]
[12]
  collision cross section: 437.23 ± 0.96 Å²

## TLDEILQEKK [_TLDEILQEK(GlyGly (K))K_]
[5]
  collision cross section: 390.82 ± 2.5 Å²
[6]
  collision cross section: 438.72 ± 1.6 Å²

## DSSPTTNSKLSALQR [_DSSPTTNSK(hydroxyisobutyryl)LSALQR_]
Charge state: 2, modification: hydroxyisobutyryl
  collision cross section: 437.4 ± 0.29 Å²
Charge state: 3, modification: hydroxyisobutyryl
  collision cross section: 502.1 ± 2.1 Å²
